B1: Azoarcus group I ribozyme (parent)
chain: GUGCCUUGCGCCGGGAAACCACGCAAGGGAUGGUGUCAAAUUCGGCGAAACCUAAGCGCCCGCCCGGGCGUAUGGCAACGCCGAGCCAAGCUUCGGCGCCUGCGCCGAUGAAGGUGUAGAGACUAGACGGCACCCACCUAAGGCAAACGCUAUGGUGAAGGCAUAGUCCAGGGAGUGGCGAAAGUCACACAAACCGG

The data set covers variants of B1. Description: reverse-splicing fitness (ratio to wild type); higher = more active; in vitro selection; Mg2+ level not given. Summed up: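 An in vitro group I ribozyme library with randomized positions was T7-transcribed and gel-purified. In triplicate, 10 pmol RNA in EPPS pH 7.5 was reacted with 50 pmoles of a 30-nt RNA substrate for 1 h at 37 °C across several added MgCl2 levels (1–48 mM), then stopped with EDTA. Products were reverse transcribed from a substrate-complementary primer, PCR-amplified and sequenced (HiSeq 4000). Fitness is a variant's read proportion after selection over that before, normalised to wild type.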
For A120G C150A C169G U176C, the reverse-splicing fitness is 0.0784.

Consider A111G A120U A145U C150U C169U U176G, for which the reverse-splicing fitness was 0.00321.

As for A120G A145U C150U C169U U176C, the reverse-splicing fitness came out at 0.162.

On to A111C A120U C169G U176A, for which the reverse-splicing fitness stood at 0.00529.

For C82U A120C A145C C150U U176G, the reverse-splicing fitness was 0.00608.

Take C82A A111C A120U A145U C150A: the reverse-splicing fitness was found to be 0.00598.

With C82A A111G A120U A145G C150G U176G, the reverse-splicing fitness was found to be 0.00403.

For A111C A120G A145C C150A, the reverse-splicing fitness stood at 0.0117.

Turning to A111C A145U C150G C169G U176G, the reverse-splicing fitness is 0.0067.

Take C82G A111C A120G A145G C150G U176A: the reverse-splicing fitness is 0.00732.

On to A111G A120C A145G C150A U176G, for which the reverse-splicing fitness is 0.0203.

Regarding C82U A111C A145U C169G U176G, the reverse-splicing fitness worked out at 0.00667.

For the variant C82U A120U C150G C169A U176C, the reverse-splicing fitness is 0.003.

On to C82U A111C A120G A145U C150U C169A U176A, for which the reverse-splicing fitness is 0.0111.

For the variant C82U A111U A145U C150U C169A, the reverse-splicing fitness is 0.00818.

As to A120U C150A U176C, the reverse-splicing fitness turned out to be 0.172.

Consider C82A A120C A145U C150A C169A U176G, for which the reverse-splicing fitness was determined as 0.00601.

Take C82U A111G A120C C169G U176C: the reverse-splicing fitness came out at 0.0156.

With C82G A111G A120U A145C C150A C169G U176G, the reverse-splicing fitness stood at 0.0019.

Turning to C82A A111C A120U C150G C169G U176G, the reverse-splicing fitness came to 0.00279.

As to A111C A145C C169A U176G, the reverse-splicing fitness came to 0.007.

Regarding C82G A111U A120G A145G C169A U176C, the reverse-splicing fitness amounted to 0.0214.

Turning to A111U A120G C150U C169U U176C, the reverse-splicing fitness was 0.0386.

As to A111U A145G C150U C169G, the reverse-splicing fitness was determined as 0.0498.

Take C82G A111C C150U C169U U176C: the reverse-splicing fitness was determined as 0.0142.

As for C82U A111U A120U A145U C150A C169U, the reverse-splicing fitness turned out to be 0.00279.

For C82A A111U C150A U176C, the reverse-splicing fitness came to 0.0292.

In the case of A111C C150G C169A U176C, the reverse-splicing fitness was found to be 0.0107.

For C82A A120U A145C C150G C169G, the reverse-splicing fitness was 0.0026.

With C82G A111G A120C A145U C150U C169A U176C, the reverse-splicing fitness came to 0.0137.

For C82G A111G A120C C169U U176C, the reverse-splicing fitness was found to be 0.0134.

For the variant C82G A111C A120G A145C C150G C169A U176G, the reverse-splicing fitness was 0.005.

C82A A120U A145C C150A C169U U176G: the reverse-splicing fitness came out at 0.00218.

C82U A111C A120C C150A C169A: the reverse-splicing fitness was 0.00879.

In the case of C82G A111G A120G A145C C150G C169A U176A, the reverse-splicing fitness stood at 0.0102.

Regarding C82G A120G C150A U176G, the reverse-splicing fitness amounted to 0.0105.

For the variant A145G C150A C169G U176G, the reverse-splicing fitness is 0.00527.

For the variant C82U A111G A120G A145C C169A U176G, the reverse-splicing fitness turned out to be 0.00366.

With C82G A111G A120G C150U U176C, the reverse-splicing fitness worked out at 0.0211.

As for C82U A145C C150A C169G U176A, the reverse-splicing fitness turned out to be 0.0178.

Regarding A111C A120C C150A C169G U176A, the reverse-splicing fitness was determined as 0.0198.

Consider A111U A120G A145G C150U U176A, for which the reverse-splicing fitness was found to be 0.0295.

Turning to A120G A145C C150A C169A, the reverse-splicing fitness amounted to 0.029.

As to C82G A111C A145G C169G U176C, the reverse-splicing fitness is 0.0315.

With A111C A120U C150G C169A U176A, the reverse-splicing fitness turned out to be 0.00683.

On to C82U A111U A145U C169A U176A, for which the reverse-splicing fitness amounted to 0.00935.

Regarding C82U A111U C150G U176C, the reverse-splicing fitness was found to be 0.0152.

With C82U A111G A120G A145C C150A, the reverse-splicing fitness amounted to 0.00658.

Consider A111G A120G C150U C169U U176G, for which the reverse-splicing fitness came to 0.00845.

With C82G A120G A145C C150A U176G, the reverse-splicing fitness turned out to be 0.00453.

On to C82U A111G A120C A145U C150U C169U U176A, for which the reverse-splicing fitness is 0.0157.

As to C82G A120G A145C U176A, the reverse-splicing fitness worked out at 0.0133.

With C82G A111C A145U C150G C169A U176C, the reverse-splicing fitness is 0.0126.

With C82G A111G A120U C150G U176A, the reverse-splicing fitness was determined as 0.00529.

For the variant A111G A120U C150G C169U U176G, the reverse-splicing fitness was determined as 0.00256.

For the variant C82G A111C A145C C150G U176A, the reverse-splicing fitness was 0.0132.

With C82A A111U A145C C150A C169A, the reverse-splicing fitness came out at 0.00947.

Turning to A120G A145U C169G U176G, the reverse-splicing fitness came to 0.0156.

A145U: the reverse-splicing fitness came to 0.946.

In the case of C82A A111G A120C C150G C169G U176A, the reverse-splicing fitness is 0.00731.

Turning to A111G A120G A145C C150G C169A, the reverse-splicing fitness is 0.0226.

With C82G A120U C150A C169U U176C, the reverse-splicing fitness was determined as 0.00296.

C82U A111C A120C A145U C150A C169G U176A: the reverse-splicing fitness was determined as 0.0132.

As for C82A A111G A145C C150G C169G U176A, the reverse-splicing fitness was 0.0093.

Consider C82A A120U A145U C150U C169U, for which the reverse-splicing fitness stood at 0.00442.

As to C82A A111G A145U C169A, the reverse-splicing fitness amounted to 0.00788.

As to C82G A120C A145U C150U U176A, the reverse-splicing fitness is 0.0489.

As for C82G A111C A120G A145G C169U U176G, the reverse-splicing fitness was determined as 0.00423.

For the variant C82G A120G C150U C169U U176G, the reverse-splicing fitness was 0.00651.

Consider A120C C150U C169U U176C, for which the reverse-splicing fitness is 0.143.

C82A A111C A120C A145G C150G: the reverse-splicing fitness came to 0.00852.

On to C82G A111G A120C A145G C150G U176G, for which the reverse-splicing fitness stood at 0.0057.

For C82A A111U A120C A145C C150U U176A, the reverse-splicing fitness was 0.0118.

C82G A111G A145U C150U U176G: the reverse-splicing fitness came out at 0.0614.

In the case of C82G A111C A145U C150U C169A U176A, the reverse-splicing fitness stood at 0.0121.

With A111C A120U A145U C150G, the reverse-splicing fitness is 0.0737.

Take C82A A111G A145G C150G U176A: the reverse-splicing fitness was 0.00955.

On to C82U A111C A120G A145C C150A, for which the reverse-splicing fitness was 0.00617.

With A111G A145G C150A C169G, the reverse-splicing fitness is 0.0238.

As to C82U A120U A145C C169G U176G, the reverse-splicing fitness came to 0.00143.

In the case of A111G A120G C150U C169G U176G, the reverse-splicing fitness turned out to be 0.00531.

With C82U A111U A145G C150A, the reverse-splicing fitness was 0.0405.

For the variant C82A A120U A145G C150U C169A U176A, the reverse-splicing fitness stood at 0.00597.

These data come from the RNAGym collection of RNA variant scans (doi:10.1093/molbev/msab373).
